The target in the test is His6-SUMO tagged H3.3 (human, UniProt P84243 1-136). The test is described as follows: native gel or EMSA. (In general: A gel shift assay detects complexes by their altered migration in electrophoresis.)

B1: human histone H3.Y (natural protein)
chain: not shown
Regarding B1, the binding result is reported as “binds”.

Values taken from publication PMC5291245 (Nucleic Acids Research, 2016).
